From US8653039 (INDIANA UNIVERSITY RESEARCH AND TECHNOLOGY CORPORA, dated 2014) come the findings set out here.

Assay [1] concerns the target cancer specific isoform of proliferating cell nuclear antigen (caPCNA) (human) (UniProt P12004). The assay can be described thus: capture ELISA, XPG-GST on the plate, cell extracts, detection with C20 anti-PCNA antibody. Background: An ELISA detects its analyte on a solid surface through an enzyme-linked reagent.
For assay [2], the target named is T1, cancer specific isoform of proliferating cell nuclear antigen (caPCNA) (human, UniProt P12004 1-261, acidic isoform; the filing says it differs from nmPCNA by post-translational modification, not by a genetic change; the residues are not stated).
T1 construct: Native protein from MCF7 cell extract, nuclear extract or synthesome fraction, or 'isolated/purified caPCNA' in the ELISAs; also called csPCNA; ca(cs)PCNA
The assay can be described thus: competition ELISA, caPCNAab on the plate, purified caPCNA, XPG peptide in increasing amounts. Here is the method: The wells are washed and then incubated with a goat anti-PCNA antibody (C20) that recognizes the C-terminal 20 amino acids of PCNA. Bound C20 antibody is visualized with an alkaline phosphatase conjugated anti-goat IgG antibody, and bound antibody complex is visualized with […], and quantified by spectrophotometry. The competition experiments shown in this study involve the simultaneous incubation of the ca(cs)PCNA with increasing amounts of the antigenic peptide fragment of caPCNA (referred to as B1 or the PCNA aa126-133 peptide) in this assay.
The ELISA described herein was used to monitor the ability of two peptides to disrupt caPCNA binding to the bound caPCNA antibody. One peptide (H-Gly-Arg-Lys- […] OH) (SEQ ID NO: 29) corresponding to the p21cip/waf1 proteins site of interaction with PCNA was evaluated in this assay, and is shown to have no effect on the binding of caPCNA to the bound caPCNA antibody in this ELISA assay (FIG. 7). […] Therefore, the XPG peptide interacts with its recognized PCNA binding site in order to block binding of the PCNA protein to the caPCNA antibody. This happens if the epitope recognized by the antibody was masked by specifically binding this XPG peptide.

Where no end group is shown, it is not given here.

T1 sequence (P12004 whole entry, canonical isoform): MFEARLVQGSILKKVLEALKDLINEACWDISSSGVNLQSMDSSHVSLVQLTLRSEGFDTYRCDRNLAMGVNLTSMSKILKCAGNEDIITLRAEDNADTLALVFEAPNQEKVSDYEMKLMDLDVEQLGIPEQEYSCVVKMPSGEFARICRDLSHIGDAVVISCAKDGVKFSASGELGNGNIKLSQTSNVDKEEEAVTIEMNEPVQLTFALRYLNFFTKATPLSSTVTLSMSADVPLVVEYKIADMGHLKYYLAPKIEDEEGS
Chain of cancer specific isoform of proliferating cell nuclear antigen (caPCNA) (human) (P12004 whole entry, canonical isoform): as above

B1: XPG-GST fusion protein (peptide, UniProt P28715 981-1009, looked up, not shown: a dimerising Fc or GST)
chain: LKQLDAQQTQLRIDSFFRLAQQEKEDAKR
modifications: also: fused to GST, order of parts and linker not given here
In assay [1], B1 yielded a fold colored product (absorbance at 405 nm), MCF7 extract against MCF10A extract of 3 fold.

B2: XPG peptide corresponding to the XPG-PCNA interaction site of the XPG protein (peptide)
peptide: H-QTQLRIDSFFR-OH
With B2, the binding result in assay [2] is given as “binds”.
